In publication PMC10592561:

Molecular target: Complement C3b, human, purified (human) (UniProt P01024)
Test: SPR

| Kd | Substance |
| --- | --- |
| 64.4 µM | Factor H CCP1-4 variant R166Q (domain or fragment) |
| 6.8 µM | Factor H CCP1-4, wild type (domain or fragment) |
